The results in this text go back to patent publication US20260365755 (published 2026).

Substitutions are numbered along the chain they refer to.

A word on the Kd: it is a measure of binding affinity in units of concentration. A higher Kd goes with a looser complex. As usually defined, the EC50 is the concentration that produces a half-maximal response. Higher therefore signals lower potency in that assay.

The target of test [1] is C1q (human, UniProt P02745). The experiment in a line: BLI.
The target of test [2] is FcγRIIIa (human, UniProt P08637). As to the kind of experiment: BLI.
FcγRIIIa, sequence (P08637 17-208): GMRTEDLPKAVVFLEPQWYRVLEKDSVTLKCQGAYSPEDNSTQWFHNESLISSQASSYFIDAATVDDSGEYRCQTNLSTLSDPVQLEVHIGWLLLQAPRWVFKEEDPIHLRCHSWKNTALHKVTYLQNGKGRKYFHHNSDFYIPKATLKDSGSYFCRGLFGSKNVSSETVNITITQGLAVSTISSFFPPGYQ
In test [3] the target is T1, VEGF165 (human, UniProt P15692).
T1 chain: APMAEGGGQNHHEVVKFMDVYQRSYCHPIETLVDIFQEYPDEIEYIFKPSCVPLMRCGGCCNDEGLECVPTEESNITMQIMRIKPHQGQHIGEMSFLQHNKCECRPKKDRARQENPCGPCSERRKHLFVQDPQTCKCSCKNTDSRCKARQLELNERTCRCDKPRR
As to the kind of experiment: ELISA. On the technique in general: In an ELISA, binding on a coated surface is turned into a signal by an enzyme label.

In test [4] the target is T2, FcγRIIa (human, UniProt P12318).
T2 chain: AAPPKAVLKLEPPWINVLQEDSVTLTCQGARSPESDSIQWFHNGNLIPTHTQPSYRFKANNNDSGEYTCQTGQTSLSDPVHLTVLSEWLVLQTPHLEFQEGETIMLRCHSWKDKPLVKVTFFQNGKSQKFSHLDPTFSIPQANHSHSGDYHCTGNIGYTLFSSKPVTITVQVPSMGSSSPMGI
As to the kind of experiment: BLI.

For test [5], the target named is FcRn (human, UniProt P55899). The experiment in a line: BLI. For orientation: In BLI a coated tip is dipped into the sample, and binding shifts an interference pattern.
FcRn, sequence (P55899 24-297, chain 1 of 2): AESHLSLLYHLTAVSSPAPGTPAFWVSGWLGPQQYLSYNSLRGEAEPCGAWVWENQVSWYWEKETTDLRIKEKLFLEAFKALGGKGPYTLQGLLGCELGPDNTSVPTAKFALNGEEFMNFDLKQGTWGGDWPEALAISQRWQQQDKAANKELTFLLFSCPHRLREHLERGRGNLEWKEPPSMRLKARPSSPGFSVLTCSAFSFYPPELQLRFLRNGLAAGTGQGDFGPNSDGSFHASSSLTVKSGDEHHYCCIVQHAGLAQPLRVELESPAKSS
FcRn, sequence (chain, as listed by the source, chain 2 of 2): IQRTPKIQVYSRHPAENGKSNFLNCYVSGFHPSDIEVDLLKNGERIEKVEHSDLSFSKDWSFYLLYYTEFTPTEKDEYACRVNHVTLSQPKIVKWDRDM

C1q, sequence (P02745 23-245, chain 1 of 3): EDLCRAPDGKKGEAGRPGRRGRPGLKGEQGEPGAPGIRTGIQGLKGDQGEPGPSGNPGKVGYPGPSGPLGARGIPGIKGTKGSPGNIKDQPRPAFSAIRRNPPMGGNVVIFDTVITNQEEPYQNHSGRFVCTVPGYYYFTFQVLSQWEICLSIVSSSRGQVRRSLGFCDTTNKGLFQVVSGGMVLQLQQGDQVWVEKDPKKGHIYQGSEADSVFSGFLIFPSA
C1q, sequence (P02746 28-253, chain 2 of 3, further chain): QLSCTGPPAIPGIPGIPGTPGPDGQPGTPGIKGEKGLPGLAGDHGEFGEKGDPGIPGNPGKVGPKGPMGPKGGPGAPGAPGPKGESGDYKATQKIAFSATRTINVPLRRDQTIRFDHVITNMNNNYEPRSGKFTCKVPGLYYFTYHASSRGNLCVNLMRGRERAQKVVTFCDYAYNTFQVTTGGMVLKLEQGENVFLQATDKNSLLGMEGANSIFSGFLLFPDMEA
C1q, sequence (P02747 29-245, chain 3 of 3, further chain): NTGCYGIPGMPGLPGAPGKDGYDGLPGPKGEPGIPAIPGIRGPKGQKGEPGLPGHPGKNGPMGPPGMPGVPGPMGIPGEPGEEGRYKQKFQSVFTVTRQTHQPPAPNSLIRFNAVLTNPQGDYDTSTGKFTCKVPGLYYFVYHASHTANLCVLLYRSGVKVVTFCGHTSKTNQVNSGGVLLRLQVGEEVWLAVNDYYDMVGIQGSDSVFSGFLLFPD

B1: Q-SBL-113 (antibody)
chain 1: not shown
chain 2: not shown
chain 3: EVQLVESGGGLVQPGGSLRLSCAASGYTFTNYGMNWVRQAPGKGLEWVGWINTYTGEPTYAADFKRRFTFSLDTSKSTAYLQMNSLRAEDTAVYYCAKYPHYYGSSHWYFDVWGQGTLVTVSSASTKGPSVFPLAPSSKSTSGGTAALGCLVKDYFPEPVTVSWNSGALTSGVHTFPAVLQSSGLYSLSSVVTVPSSSLGTQTYICNVNHKPSNTKVDKKVEPKSCDKTHTCPPCPAPELLGGPSVFLFPPKPKDTLMISRTPEVTCVVVDVSHEDPEVKFNWYVDGVEVHNAKTKPREEQYNSTYRVVSVLTVLHQDWLNGKEYKCKVSNKALPAPIEKTISKAKGQPREPQVCTLPPSRREMTKNQVSLWCLVKGFYPSDIAVEWESNGQPENNYKTTPPVLDSDGSFFLYSKLTVDKSRWQQGNVFSCSVMHEALHNHYTQKSLSLSPGK
chain 4: not shown
As to B1, the Kd in test [1] came out at 36 nM; in test [2] it was 600 nM; in test [4] it was 2140 nM; in test [5] it was 690 nM. In addition, it took 0.154 nM to reach a half-maximal effect in test [3] (EC50).

B2: Q-SBL-110 (antibody)
chain 1: not shown
chain 2: not shown
chain 3: B1 chain 3
chain 4: not shown
B2: the results for the Kd in test [2], in test [4] and in test [5] were 570 nM, 2290 nM and 610 nM, respectively. Moreover, in test [3], the EC50 turned out to be 0.168 nM.

B3: Q-SBL-112 (antibody)
chain 1: not shown
chain 2: not shown
chain 3: B1 chain 3
chain 4: not shown
For B3, the Kd in test [1] is 32 nM; in test [2] it was 600 nM; in test [4], 2020 nM; in test [5], 720 nM. Besides, the EC50 in test [3] worked out at 0.149 nM.

B4: Q-SBL-129 (antibody)
chain 1: not shown
chain 2: not shown
chain 3: B1 chain 3 with R362E, D405F
chain 4: not shown
On to B4, for which the Kd stood at 16 nM in test [1], 290 nM in test [2], 1670 nM in test [4] and 700 nM in test [5]. The EC50 in test [3] was found to be 0.17 nM.
